For this data set, the system named is Escherichia coli TOP10. Description: shrunken log2 fold change of peptide-encoding DNA abundance (4.5 h post-induction vs induction); higher = less antimicrobial activity (less host growth inhibition). The note with it: time post-induction: 4.5 h; library: site-saturation at positions 5, 18, 19, 20.
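Note: peptides expressed intracellularly from a pBAD plasmid library in pooled LB shake-flask culture, induced with 0.3% L-arabinose, DNA abundance read by NGS, three biological replicates, DESeq2 with apeglm shrinkage.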

For the sequence RRIRRRPPRLPRPRPRPHKAPRP, the “shrunken log2 fold change” value came out at 0.434. Under RRIRARPPRLPRPRPRPTQWPRP stands 0.457; under RRIRARPPRLPRPRPRPKHIPRP, -0.219; under RRIRYRPPRLPRPRPRPETVPRP, -0.0477.

In the case of RRIRWRPPRLPRPRPRPGISPRP, the “shrunken log2 fold change” value is -0.00138. In the case of RRIRCRPPRLPRPRPRPAYHPRP it was -0.436. Under RRIRCRPPRLPRPRPRPMGKPRP stands 0.0173; under RRIRQRPPRLPRPRPRPDIPPRP, -0.811. Under RRIRIRPPRLPRPRPRPEVDPRP stands -0.0435; under RRIRTRPPRLPRPRPRPVNFPRP, -0.484; under RRIRLRPPRLPRPRPRPQWWPRP, 0.491. RRIRQRPPRLPRPRPRPDEIPRP: the “shrunken log2 fold change” value is -0.00251. As for RRIRNRPPRLPRPRPRPYNQPRP, the “shrunken log2 fold change” value was -0.597. In the case of RRIRARPPRLPRPRPRPGYTPRP it was 0.324.

Regarding RRIRDRPPRLPRPRPRPICSPRP, the “shrunken log2 fold change” value turned out to be 0.0206.

Turning to RRIRDRPPRLPRPRPRPGIYPRP, the “shrunken log2 fold change” value is -0.15. In the case of RRIRIRPPRLPRPRPRPQDAPRP it was -0.449; in that of RRIRNRPPRLPRPRPRPTFQPRP, 0.0675; in that of RRIRDRPPRLPRPRPRPKHWPRP, 0.723. Under RRIRLRPPRLPRPRPRPSYRPRP stands -0.242. Regarding RRIRGRPPRLPRPRPRPAGIPRP, the “shrunken log2 fold change” value came to 0.207. Under RRIRRRPPRLPRPRPRPMIGPRP stands -0.041; under RRIRWRPPRLPRPRPRPPVEPRP, 0.392; under RRIRPRPPRLPRPRPRPESTPRP, 0.118. With RRIRHRPPRLPRPRPRPKRPPRP, the “shrunken log2 fold change” value worked out at 0.354. Turning to RRIRQRPPRLPRPRPRPGMNPRP, the “shrunken log2 fold change” value was found to be 0.0205. Under RRIRSRPPRLPRPRPRPPQPPRP stands 0.432; under RRIRLRPPRLPRPRPRPGGFPRP, 0.176; under RRIRSRPPRLPRPRPRPKHEPRP, 0.076.

Take RRIRSRPPRLPRPRPRPARRPRP: the “shrunken log2 fold change” value was 0.0588. Under RRIRDRPPRLPRPRPRPYCAPRP stands -0.204; under RRIRTRPPRLPRPRPRPKAWPRP, 0.255; under RRIRPRPPRLPRPRPRPNQNPRP, -0.178. In the case of RRIRCRPPRLPRPRPRPSWHPRP it was -0.488. In the case of RRIRIRPPRLPRPRPRPVYYPRP it was -1.62. In the case of RRIRGRPPRLPRPRPRPYHWPRP, the “shrunken log2 fold change” value is -0.407.

Turning to RRIRKRPPRLPRPRPRPRDDPRP, the “shrunken log2 fold change” value is 0.365. In the case of RRIRMRPPRLPRPRPRPETWPRP it was 1.44; in that of RRIRWRPPRLPRPRPRPTYYPRP, -0.463; in that of RRIRQRPPRLPRPRPRPASCPRP, 0.182. In the case of RRIRTRPPRLPRPRPRPGQRPRP it was 0.118; in that of RRIRARPPRLPRPRPRPCIYPRP, -0.0979. As for RRIRTRPPRLPRPRPRPYHCPRP, the “shrunken log2 fold change” value came out at 0.0119. For the sequence RRIRRRPPRLPRPRPRPHTRPRP, the “shrunken log2 fold change” value was found to be 0.145. Under RRIRVRPPRLPRPRPRPHLSPRP stands -0.301; under RRIRWRPPRLPRPRPRPRPYPRP, 0.0357; under RRIRIRPPRLPRPRPRPHLTPRP, -0.379. Under RRIRSRPPRLPRPRPRPYQTPRP stands -0.0406; under RRIRSRPPRLPRPRPRPWWDPRP, -0.137; under RRIRIRPPRLPRPRPRPEFFPRP, 0.179. Under RRIRERPPRLPRPRPRPNRGPRP stands -0.00351.

Take RRIRMRPPRLPRPRPRPNEEPRP: the “shrunken log2 fold change” value was -0.0651. Under RRIRSRPPRLPRPRPRPMMWPRP stands 0.598. In the case of RRIRIRPPRLPRPRPRPWNQPRP it was 0.00812.

For RRIRVRPPRLPRPRPRPYVHPRP, the “shrunken log2 fold change” value is -0.104. Under RRIRQRPPRLPRPRPRPKMPPRP stands -0.0283. Under RRIRNRPPRLPRPRPRPVGIPRP stands -0.2. In the case of RRIRERPPRLPRPRPRPIWCPRP it was 0.000213; in that of RRIRIRPPRLPRPRPRPANAPRP, -0.319. Turning to RRIRVRPPRLPRPRPRPSHPPRP, the “shrunken log2 fold change” value was -0.852. In the case of RRIRWRPPRLPRPRPRPHMIPRP it was -0.219; in that of RRIRSRPPRLPRPRPRPMHRPRP, 0.0682; in that of RRIRRRPPRLPRPRPRPSMCPRP, 0.008. Regarding RRIRLRPPRLPRPRPRPQCFPRP, the “shrunken log2 fold change” value is -0.0127. Under RRIRLRPPRLPRPRPRPHKLPRP stands -0.1; under RRIRARPPRLPRPRPRPFWWPRP, 0.923. In the case of RRIRYRPPRLPRPRPRPGDMPRP it was -0.464; in that of RRIRGRPPRLPRPRPRPMQDPRP, 0.108; in that of RRIRQRPPRLPRPRPRPMFNPRP, -0.436. Consider RRIRVRPPRLPRPRPRPTPPPRP, for which the “shrunken log2 fold change” value amounted to 0.406.

Turning to RRIRARPPRLPRPRPRPIVVPRP, the “shrunken log2 fold change” value was -0.14. In the case of RRIRSRPPRLPRPRPRPTTIPRP it was 0.127. Under RRIRRRPPRLPRPRPRPAGIPRP stands 0.352; under RRIRQRPPRLPRPRPRPVGWPRP, 0.72. Under RRIRWRPPRLPRPRPRPLQLPRP stands 0.0501. RRIRYRPPRLPRPRPRPRHVPRP: the “shrunken log2 fold change” value was -0.0478. In the case of RRIRCRPPRLPRPRPRPKKTPRP it was -0.142; in that of RRIRFRPPRLPRPRPRPGIWPRP, 0.125.

In the case of RRIRGRPPRLPRPRPRPVINPRP, the “shrunken log2 fold change” value turned out to be 0.199. In the case of RRIRIRPPRLPRPRPRPERTPRP it was 0.0643. For the sequence RRIRCRPPRLPRPRPRPRGEPRP, the “shrunken log2 fold change” value came out at 0.435.

Consider RRIRPRPPRLPRPRPRPFLDPRP, for which the “shrunken log2 fold change” value was -0.413. For RRIRQRPPRLPRPRPRPGHTPRP, the “shrunken log2 fold change” value was 0.0169. Under RRIRCRPPRLPRPRPRPYHDPRP stands -1.05; under RRIRSRPPRLPRPRPRPNNAPRP, -0.38; under RRIRQRPPRLPRPRPRPNPMPRP, -0.00515.

As to RRIRFRPPRLPRPRPRPDWPPRP, the “shrunken log2 fold change” value is -0.0836.

Turning to RRIRKRPPRLPRPRPRPDTWPRP, the “shrunken log2 fold change” value worked out at 0.35.

For the sequence RRIRHRPPRLPRPRPRPYYCPRP, the “shrunken log2 fold change” value is -0.541. For the sequence RRIRRRPPRLPRPRPRPKDEPRP, the “shrunken log2 fold change” value turned out to be 0.189. In the case of RRIRTRPPRLPRPRPRPHCRPRP it was -0.0822; in that of RRIRMRPPRLPRPRPRPNPEPRP, 0.406. In the case of RRIRTRPPRLPRPRPRPHIIPRP it was -0.0938; in that of RRIRWRPPRLPRPRPRPFTQPRP, -0.0585. Turning to RRIRNRPPRLPRPRPRPDCEPRP, the “shrunken log2 fold change” value worked out at 0.0108. On to RRIRFRPPRLPRPRPRPQPEPRP, for which the “shrunken log2 fold change” value is -0.119. In the case of RRIRCRPPRLPRPRPRPGNAPRP it was 0.185; in that of RRIRGRPPRLPRPRPRPTHHPRP, 0.413.

Turning to RRIRKRPPRLPRPRPRPFHVPRP, the “shrunken log2 fold change” value was -0.265. In the case of RRIRKRPPRLPRPRPRPLILPRP it was -0.265; in that of RRIRIRPPRLPRPRPRPRNIPRP, -0.00545; in that of RRIRVRPPRLPRPRPRPAVMPRP, -0.0705. RRIRDRPPRLPRPRPRPVCVPRP: the “shrunken log2 fold change” value came out at 0.514.

With RRIRVRPPRLPRPRPRPVRLPRP, the “shrunken log2 fold change” value amounted to 0.44. In the case of RRIRERPPRLPRPRPRPGWVPRP it was 0.381. In the case of RRIRGRPPRLPRPRPRPIFGPRP it was -0.0743; in that of RRIRQRPPRLPRPRPRPQYIPRP, -0.0838; in that of RRIRARPPRLPRPRPRPYFPPRP, -0.418.

Regarding RRIRKRPPRLPRPRPRPKIEPRP, the “shrunken log2 fold change” value was -0.0694.

As for RRIRIRPPRLPRPRPRPVSHPRP, the “shrunken log2 fold change” value amounted to 0.113. On to RRIRQRPPRLPRPRPRPKGCPRP, for which the “shrunken log2 fold change” value is -0.0208. In the case of RRIRDRPPRLPRPRPRPWYPPRP it was -0.0798; in that of RRIRARPPRLPRPRPRPNPCPRP, 0.0698; in that of RRIRARPPRLPRPRPRPVPDPRP, 0.493.

In the case of RRIRARPPRLPRPRPRPLNVPRP, the “shrunken log2 fold change” value was -0.234. Under RRIRVRPPRLPRPRPRPYQVPRP stands -0.293; under RRIRDRPPRLPRPRPRPFMAPRP, 0.035. In the case of RRIRLRPPRLPRPRPRPTFQPRP it was -0.098; in that of RRIRRRPPRLPRPRPRPDFRPRP, 0.118; in that of RRIRGRPPRLPRPRPRPMSVPRP, 0.0559. In the case of RRIRYRPPRLPRPRPRPCCNPRP it was 0.00367; in that of RRIRFRPPRLPRPRPRPQTRPRP, 0.149; in that of RRIRSRPPRLPRPRPRPFTKPRP, -0.202. As for RRIRVRPPRLPRPRPRPDEDPRP, the “shrunken log2 fold change” value amounted to 0.185. In the case of RRIRYRPPRLPRPRPRPYQMPRP it was -0.344.

The values are drawn from the supplement of paper PMC9112550, “Optimization of the antimicrobial peptide Bac7 by deep mutational scanning” (BMC Biology, 2022).
